Among the data in the Immune Epitope Database (IEDB) are IC50 values, retold here.

One may read the IC50 as the point on the concentration scale where inhibition reaches its midpoint.

Among the targets are HLA-A*02:06; HLA-A*02:01; HLA-A*02:03; HLA-A*02:02; HLA-A*68:02.
Holding throughout (experiment): IEDB peptide-MHC binding, purified MHC/competitive/radioactivity; ≥ and ≤ were set here for values at or beyond the usual limits of such assays
Where [1] appears, read: source organism: Vaccinia virus WR.
Where [2] appears, read: source organism: Hepacivirus hominis.
Setting [3] is: source organism: Mammarenavirus lassaense.
The mark [4] stands for this setting: source organism: Influenza A virus.

Take MQVFFGYFA: the IC50 with HLA-A*02:06 (source organism: SARS-CoV1) amounted to 1 nM; with HLA-A*02:01 (source organism: SARS-CoV1), 10 nM; in the assay with HLA-A*02:03 (source organism: SARS-CoV1) it was 193 nM; with HLA-A*02:02 (source organism: SARS-CoV1), 10 nM; with HLA-A*68:02 (source organism: SARS-CoV1), 12 nM.
With MVDVSMMSM, the IC50 was found to be 101 nM in the assay with HLA-A*02:06 (setting [1]); 200 nM with HLA-A*02:01 (setting [1]); 1160 nM with HLA-A*02:03 (setting [1]); 559 nM with HLA-A*02:02 (setting [1]); 519 nM with HLA-A*68:02 (setting [1]).
Consider MVLMTHFFSV, for which the IC50 was 15 nM with HLA-A*02:06 (setting [2]); 146 nM with HLA-A*02:01 (setting [2]); 174 nM with HLA-A*02:03 (setting [2]); 808 nM in the assay with HLA-A*02:02 (setting [2]); 13 nM with HLA-A*68:02 (setting [2]).
In the case of MVMCGGSLYV, the IC50 was 13 nM with HLA-A*02:06 (source organism: SARS-CoV1); 14 nM with HLA-A*02:01 (source organism: SARS-CoV1); 10 nM with HLA-A*02:03 (source organism: SARS-CoV1); 15 nM in the assay with HLA-A*02:02 (source organism: SARS-CoV1); 6.7 nM with HLA-A*68:02 (source organism: SARS-CoV1).
On to MVTDKTAYI, for which the IC50 is 25 nM in the assay with HLA-A*02:06 (setting [1]); 227 nM with HLA-A*02:01 (setting [1]); 2 nM with HLA-A*02:03 (setting [1]); 17 nM in the assay with HLA-A*02:02 (setting [1]); 3.2 nM with HLA-A*68:02 (setting [1]).
NASKFVYVSV: the IC50 was found to be 823 nM with HLA-A*02:06 (setting [1]); 1010 nM with HLA-A*02:01 (setting [1]); 8.6 nM with HLA-A*02:03 (setting [1]); 4550 nM with HLA-A*02:02 (setting [1]); 101 nM with HLA-A*68:02 (setting [1]).
Turning to NCLSLLLSV, the IC50 in the assay with HLA-A*02:06 (setting [3]) was determined as 630 nM; with HLA-A*02:01 (setting [3]), 73 nM; with HLA-A*02:03 (setting [3]), 437 nM; with HLA-A*02:02 (setting [3]), 49 nM; in the assay with HLA-A*68:02 (setting [3]), 1850 nM.
For the sequence NIFMTLVPV, the IC50 was 227 nM in the assay with HLA-A*02:06 (setting [1]); 11 nM with HLA-A*02:01 (setting [1]); 6.4 nM in the assay with HLA-A*02:03 (setting [1]); 86 nM with HLA-A*02:02 (setting [1]); 2.6 nM with HLA-A*68:02 (setting [1]).
For NIGCAVNTPV, in that order: 176 nM, 23 nM, 30 nM, 126 nM and 11 nM.
For NIISYIILFI, in that order: 72 nM, 156 nM, 133 nM, 123 nM and 25 nM.
Consider NILMDSIFV, for which the IC50 with HLA-A*02:06 (setting [1]) was determined as 170 nM; with HLA-A*02:01 (setting [1]), 179 nM; with HLA-A*02:03 (setting [1]), 223 nM; with HLA-A*02:02 (setting [1]) it was 252 nM; with HLA-A*68:02 (setting [1]) it was 147 nM.
The matching figures for NIPELKHGLL: 1230 nM, 2560 nM, 2700 nM, 2300 nM and 100 nM.
NITRLEVIGL: the 50% inhibitory concentration (IC50) came out at 197 nM in the assay with HLA-A*02:06 (setting [1]); 424 nM in the assay with HLA-A*02:01 (setting [1]); 95 nM with HLA-A*02:03 (setting [1]); 907 nM in the assay with HLA-A*02:02 (setting [1]); 301 nM with HLA-A*68:02 (setting [1]).
The matching figures for NIVTFINDYA: 351 nM, 827 nM, 245 nM, 62 nM and 82 nM.
The matching figures for NLDDVYSYI: 92 nM, 3.8 nM, 96 nM, 0.72 nM and 1030 nM.
The matching figures for NLETYTRPEI: 636 nM, 1220 nM, 1500 nM, 539 nM and 2080 nM.
NLFDIPLLT: the IC50 in the assay with HLA-A*02:06 (setting [1]) was 1540 nM; with HLA-A*02:01 (setting [1]), 10 nM; with HLA-A*02:03 (setting [1]), 36 nM; in the assay with HLA-A*02:02 (setting [1]), 135 nM; with HLA-A*68:02 (setting [1]), 2890 nM.
With NLFEKFFPSS, the IC50 was 28 nM in the assay with HLA-A*02:06 (setting [4]); 271 nM in the assay with HLA-A*02:01 (setting [4]); 362 nM in the assay with HLA-A*02:03 (setting [4]); 415 nM in the assay with HLA-A*02:02 (setting [4]); 360 nM with HLA-A*68:02 (setting [4]).
